Measurements published in article doi:10.1101/2022.02.25.481886.

Molecular target: RFP-VAP27-1 (Arabidopsis) (UniProt Q8VZ95)
Assay: FRET or BRET

Chain of UniProt Q8VZ95 (Q8VZ95 whole entry): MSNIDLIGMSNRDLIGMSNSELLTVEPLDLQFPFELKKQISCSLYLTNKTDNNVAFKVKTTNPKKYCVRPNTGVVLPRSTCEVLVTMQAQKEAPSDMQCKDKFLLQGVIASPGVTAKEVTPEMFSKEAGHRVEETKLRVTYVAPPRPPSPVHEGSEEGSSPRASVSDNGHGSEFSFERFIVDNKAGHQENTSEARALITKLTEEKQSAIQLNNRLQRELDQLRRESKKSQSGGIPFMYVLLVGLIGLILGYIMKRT

fluorescence lifetime of the GFP donor with the RFP acceptor: 2.21 ns
Substance: GFP-TraB1b (natural protein)
